Experiments:
[1] = system: in vitro rat BBB model system; assay type: in vitro ADME; settings: Fab format, oligoclonal mixes of 3 Fabs at final 2 μM, controls 1 μM, blood side to brain side, 37° C.
Procedure: In order to assess the ability of these KnotBodies to cross the BBB, a ready to use in vitro rat BBB model system (Pharmacocell, Cat. No. RBT-24H) was used. In this model system rat brain endothelial cells were co-cultured with pericytes and astrocytes to mimic the in vivo BBB anatomy (Nakagawa, S. et al. (2009) Neurochem. Int. 54, 253-263). The in vitro rat BBB kit was cultured according to manufacturer's instructions and transendothelial electrical resistance (TEER) was measured prior to testing of KnotBodies to verify the integrity of the barrier. […] 21 KnotBody Fabs were tested for their ability to cross the in vitro BBB model system. […] The parent KnotBody KB_A12 was used as a negative control. Both positive and negative controls were expressed and purified in the Fab format as described above. […] The concentration of transcytosed Fabs in the lower chamber (referred as brain side) was determined using a sandwich ELISA. In this ELISA, Fabs were captured using an anti-CH1 antibody (provided by Hybridoma Reagent Laboratories) and detected using rabbit anti-human IgG Kappa light chain antibody (Abcam, Cat. No. ab195576) or anti-human IgG Lambda light chain antibody (Abcam, Cat. No. ab124719) followed by europium conjugated anti-rabbit antibody (Perkin Elmer, Cat. No. AD0105). […]

[2] = system: trypsin; experiment: TRF binding assay of purified KnotBody Fabs on biotinylated trypsin
[3] = system: trypsin; experiment: Phage TRF binding assay of KnotBody phage on immobilised biotinylated trypsin
Procedure: Phage display technology facilitates isolation of binders to any given target from large combinatorial repertoires based on proteins and peptides that can be presented on the surface of filamentous phage^105. In order to isolate functional knottin-antibody fusions from the KnotBody libraries multiple rounds of phage display selections on trypsin (cognate antigen for the EETI-II donor) were carried out. Phage particles were prepared by rescuing KnotBody libraries using trypsin cleavable helper phage^102,106 Two rounds of phage display selections were performed on 10 μg/ml biotinylated trypsin immobilised on Streptavidin (for Round-1) or Neutravidin (for round-2) coated Maxisorp™ immunotubes (Thermo Scientific, Cat No. 444202). In both rounds of selection, phage libraries were pre-incubated with streptavidin coated paramagnetic beads (Thermo Fisher Scientific, Cat. No. 11205D). These beads were removed prior to the addition the phage to the antigen tubes to limit the streptavidin binders entering the selection. Polyclonal phage preparations from round-2 selection outputs were analysed for trypsin binding using a time resolved fluorescence (TRF) binding assay. In this assay, polyclonal phage binding to biotinylated trypsin immobilised on neutravidin (Thermo Fisher Scientific, Cat. No 31000) coated Maxisorp™ plates (Thermo Scientific, Cat. No. 437111) was detected using a mouse anti-M13 antibody (GE Healthcare, Cat. No. 27-9420-01) followed by europium conjugated anti-mouse antibody (Perkin Elmer, Cat. No. AD0124).
In order to identify monoclonal KnotBodies with desired binding characteristics, 94 individual clones derived from 2 rounds of selection using EETI-II CDR1 or CDR2 libraries were picked into 96 well culture plates and phage were prepared from each clone. Methods for screening by monoclonal phage ELISA are known in the art^107. […] Clones with >3× binding signal above background were picked as positive clones and sequenced to identify unique clones. 14 and 42 unique binders were identified from EETI-II CDR1 and EETI-II CDR2 libraries respectively (Table 1). 18 binders from the EETI-II CDR2 library and 3 binders from the EETI-II-CDR1 library were chosen for further characterisation based on their VL and linker sequence diversity. These binders were assigned new clone identification numbers (Table 2). […] In order to confirm that the loss of trypsin binding was not due to reduced expression or display of pIII fusion phage was prepared from 11 (randomly chosen) KnotBodies and their GlyAla variants were analysed on a western blot using an antibody which recognises the product of gene 3 (pIII) using an anti-pIII antibody (MoBiTec GmbH) (FIG. 6).

[4] = target: LOX-1 (Homo sapiens, UniProt P78380); experiment: Phage TRF binding assay of adhiron-antibody fusions on LOX-1; settings: monoclonal phage; LOX-1 directly immobilised; non-specific binding checked on cMET-FC, GAS6-CD4, FGFR4-CD4, UPA, B-gal
Procedure: In order to test the functionality of these adhiron-antibody fusions, monoclonal phage prepared from each clone was assessed for binding to LOX-1 in a TRF binding assay. In this assay, LOX-1 (immobilised directly on Maxisorp™ plates) binding of phage displaying adhiron-antibody fusion was detected using a mouse anti-M13 antibody (GE Healthcare) followed by europium conjugated anti-mouse antibody (Perkin Elmer). Parent KnotBodies KB_A07 and KB_A12 (EETI-II fusions) were included as controls. Proteins cMET-FC, GAS6-CD4, FGFR4-CD4, UPA and B-gal were used to examine non-specific binding.

B1: KB_A12: EETI-II VL CDR2 KnotBody, D1A12 VH, VL SEQ ID NO: 105/373; parental/isotype control (antibody, V domains shown)
VH: EVQLVESGGGLVRPGGSLRLSCAASGFTFSSYAMSWVRQAPGKGLEWVSAISGSGGSTYYADSVKGRFTISRDNTKNSLYLQMTSLRADDTAFYYCVKDFGPGYGTGWFDYWGPGTLVTVSS
VL: QSVLTQPPSVSEAPRQRVTITCSGSSSNIGNNAVNWYQQLPGKAPKLLIYAAGRCPRILMRCKQDSDCLAGCVCGPNGFCGANSGVSDRFSAAKSGTSASLAINGLRSEDEADYYCAAWDDSLNGYVFGTGTKLTVLG
[1]
  % transcytosis after 6 h: 0.1%
[2]; KnotBody Fab 0.6 ug/mL, background (no Fab) 431
  TRF signal for 0.6 ug/mL Fab: 102132
[2]; KnotBody Fab 2.4 ug/mL, background (no Fab) 406
  TRF signal for 2.4 ug/mL Fab: 221989
[2]; KnotBody Fab 10 ug/mL, background (no Fab) 420
  TRF signal for 10 ug/mL Fab: 252832
[3]; […], monoclonal phage, streptavidin coated plates
  % reduction in binding signal: 99%
[3]; monoclonal phage supernatant, biotinylated trypsin on neutravidin coated plates, TRF
  Tryspin binding signal (FU): 69349 FU
[4]
  binding to LOX-1: no detectable binding to the LOX-1
